# From patent US20210107983A1 (Boehringer Ingelheim, published 2021)
# T1: human B7H6 on HCT-15 cells (human, UniProt Q68D85 25-454)
# T1 sequence (looked up): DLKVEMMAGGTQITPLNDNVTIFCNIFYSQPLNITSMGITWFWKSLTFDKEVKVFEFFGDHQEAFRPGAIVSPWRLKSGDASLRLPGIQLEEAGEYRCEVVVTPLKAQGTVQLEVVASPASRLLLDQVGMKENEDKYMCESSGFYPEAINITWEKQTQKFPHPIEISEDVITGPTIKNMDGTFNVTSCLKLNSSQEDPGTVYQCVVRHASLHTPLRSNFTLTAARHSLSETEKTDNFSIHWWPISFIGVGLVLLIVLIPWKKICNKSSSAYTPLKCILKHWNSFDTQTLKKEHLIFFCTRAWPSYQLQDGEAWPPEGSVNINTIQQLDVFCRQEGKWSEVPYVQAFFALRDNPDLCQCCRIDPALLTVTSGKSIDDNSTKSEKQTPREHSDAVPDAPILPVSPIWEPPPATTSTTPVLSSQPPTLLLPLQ
# T2: Cyno B7H6-His (cynomolgus monkey)
# T2 construct: also called CyB7H6; cyB7-H6
# T2 chain: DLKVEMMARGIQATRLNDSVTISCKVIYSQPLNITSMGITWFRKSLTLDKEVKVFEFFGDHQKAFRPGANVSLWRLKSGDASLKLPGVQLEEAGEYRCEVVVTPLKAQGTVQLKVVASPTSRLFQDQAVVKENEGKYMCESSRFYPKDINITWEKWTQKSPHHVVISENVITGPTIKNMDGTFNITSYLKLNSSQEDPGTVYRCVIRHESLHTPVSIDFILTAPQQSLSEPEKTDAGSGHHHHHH
# Experiments:
# [1] = molecular target: T3, Fc-His-tagged human B7H6 ECD (human); test: ELISA, plate coated with Fc-His-tagged human B7H6 ECD, anti-human IgG F(ab')2-peroxidase, TMB
# T3 construct: also called huB7H6-ECD-Fc-His; recombinant human B7H6 ECD
# Experimental: To assess binding of B7H6/CD3 binding proteins to recombinant human Fc-His-tagged B7H6 ECD and human Fc-His-tagged Ala-mutated B7H6 extracellular proteins as described in Example 3, MediSorp™ plates (Nunc, 467320) were coated with […] recombinant proteins overnight at 4° C. The next day, plates were blocked with 0.5% bovine serum albumin (BSA) in phosphate buffered saline (PBS) for 1 hour at room temperature (RT). Subsequently plates were washed with […] containing 0.05% TWEEN®20 viscous liquid and B7H6/CD3 binding proteins were incubated at concentrations ranging from 0.00001 to 10 μg/ml. After an additional washing step, bound B7H6/CD3 binding proteins were detected by a peroxidase conjugated goat anti-human IgG F(ab′)₂-specific secondary antibody (Jackson Immunoresearch) and visualized by TMB substrate solution (Bender Med Systems).
# [2] = molecular target: T1, human B7H6 on HCT-15 cells; test: cell-based or functional assay
# [3] = molecular target: T4, trypsin inhibitor from Glycine max soybean (Glycine max (soybean)); test: SPR, 1 µM binder over immobilized trypsin inhibitor
# T4 construct: unrelated negatively charged protein, amine-coupled to the chip
# T4 sequence (P01070 25-205): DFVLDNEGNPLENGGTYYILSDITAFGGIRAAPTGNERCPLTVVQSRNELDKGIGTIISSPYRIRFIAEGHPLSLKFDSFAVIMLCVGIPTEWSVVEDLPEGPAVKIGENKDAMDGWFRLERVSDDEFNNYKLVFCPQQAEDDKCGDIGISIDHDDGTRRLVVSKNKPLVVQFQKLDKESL
# Method in brief: (§1)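 Non-specific binding tested with samples at 1 μM in HBS-EP at 25 °C, 5 μL/min, over lysozyme or trypsin inhibitor amine-coupled to CM5 chip (3000–5000 RU). Association 10 min, dissociation 15 min.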
# [4] = molecular target: T2, Cyno B7H6-His; test: SPR, binder captured on Protein A/G, B7H6 analyte
# Method in brief: (§2)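 B7H6/CD3 binder captured (~700 RU) on a Protein A/G CM5 surface in HBS-EP+. Human or cyno B7H6 injected at 0–100 nM and human B7H1 at 0 nM and 1 μM, 300 s association and 1200 s dissociation. Data double-referenced against the reference flow cell and blank.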
# [5] = molecular target: T2, Cyno B7H6-His; test: ratio of SPR KDs cyno/human
# [6] = molecular target: T5, Cyno CD3 E+G HuFc-6xHis (cynomolgus monkey); test: ratio of SPR KDs cyno/human
# T5 construct: also called CyCD3E+G-hFc; cyCD3
# T5 sequence (chain, as listed by the source limits assumed): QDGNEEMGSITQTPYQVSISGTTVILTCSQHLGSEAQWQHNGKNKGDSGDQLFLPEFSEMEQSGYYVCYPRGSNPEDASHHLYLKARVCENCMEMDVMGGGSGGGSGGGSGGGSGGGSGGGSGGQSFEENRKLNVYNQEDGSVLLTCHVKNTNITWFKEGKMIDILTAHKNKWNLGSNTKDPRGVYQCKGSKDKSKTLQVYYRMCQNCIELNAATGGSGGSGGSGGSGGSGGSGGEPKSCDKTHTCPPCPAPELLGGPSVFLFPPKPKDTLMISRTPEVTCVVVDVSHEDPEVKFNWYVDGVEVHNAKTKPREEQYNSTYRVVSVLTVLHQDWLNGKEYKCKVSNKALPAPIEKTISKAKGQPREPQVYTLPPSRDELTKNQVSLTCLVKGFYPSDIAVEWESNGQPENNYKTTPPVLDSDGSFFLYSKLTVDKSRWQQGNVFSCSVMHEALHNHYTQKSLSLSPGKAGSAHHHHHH
# [7] = molecular target: T6, chicken egg white lysozyme (chicken, UniProt P00698 19-147); test: SPR, 1 µM binder over immobilized lysozyme
# T6 construct: unrelated positively charged protein, amine-coupled to the chip; also called Lysozyme (positive)
# T6 sequence (P00698 19-147): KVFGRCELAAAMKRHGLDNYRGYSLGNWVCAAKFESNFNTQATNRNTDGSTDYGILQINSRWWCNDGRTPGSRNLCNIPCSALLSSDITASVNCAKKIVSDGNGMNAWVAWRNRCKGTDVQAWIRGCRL
# Method in brief: as §1
# [8] = molecular target: T7, Human CD3 E+G HuFc-6xHis (human); test: SPR, CD3E+G-hFc immobilized, binder analyte
# T7 construct: also called HuCD3E+G-hFc; huCD3
# T7 sequence (chain, as listed by the source limits assumed): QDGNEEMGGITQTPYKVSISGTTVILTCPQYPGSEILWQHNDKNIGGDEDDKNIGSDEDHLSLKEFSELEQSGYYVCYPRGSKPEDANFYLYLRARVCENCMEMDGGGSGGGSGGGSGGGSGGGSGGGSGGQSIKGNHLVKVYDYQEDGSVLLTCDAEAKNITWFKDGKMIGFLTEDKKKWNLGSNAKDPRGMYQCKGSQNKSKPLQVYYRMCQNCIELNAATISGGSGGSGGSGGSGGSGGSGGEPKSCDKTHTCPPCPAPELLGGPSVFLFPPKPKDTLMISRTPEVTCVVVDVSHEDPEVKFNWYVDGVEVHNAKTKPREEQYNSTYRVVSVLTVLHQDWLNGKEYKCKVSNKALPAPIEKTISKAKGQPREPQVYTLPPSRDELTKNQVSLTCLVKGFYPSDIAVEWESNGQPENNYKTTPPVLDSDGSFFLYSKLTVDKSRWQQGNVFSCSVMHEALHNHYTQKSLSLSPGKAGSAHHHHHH
# Method in brief: (§3)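 On a ProteOn XPR36, human and cyno CD3E+G-hFc were amine-coupled to a GLM chip at 0.4, 0.2 and 0.1 μg/mL in 10 mM acetate pH 4.5. B7H6/CD3 binding protein (0–100 nM) flowed in HBS-EP+ at 30 μL/min, with 300 s association and 600 s dissociation. Interspot and blank responses were subtracted.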
# [9] = molecular target: T5, Cyno CD3 E+G HuFc-6xHis; test: SPR, CD3E+G-hFc immobilized, binder analyte
# Method in brief: as §3
# [10] = molecular target: T8, Human B7H1 (human, UniProt Q9NZQ7 20-239); test: SPR, binder captured on Protein A/G, HuB7H1 analyte
# T8 construct: also called HuB7H1; huB7-H1
# T8 sequence (Q9NZQ7 other isoform, or with tags, fused parts or gaps limits assumed): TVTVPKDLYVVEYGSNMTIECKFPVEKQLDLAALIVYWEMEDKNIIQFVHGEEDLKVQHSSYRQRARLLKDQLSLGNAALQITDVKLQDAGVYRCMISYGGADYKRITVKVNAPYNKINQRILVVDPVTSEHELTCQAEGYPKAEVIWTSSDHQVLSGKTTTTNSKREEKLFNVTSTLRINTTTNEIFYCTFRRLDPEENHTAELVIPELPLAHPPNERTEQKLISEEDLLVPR
# Method in brief: as §2
Binder,EC50 (read off the curve) [1],"EC50 [nM], 72 hour cytotoxicity assay, non-stimulated T-cells (Donor #1) as effector cells, HCT-15 cells as target cells [2]",Non-specific binding (RU) [3],Kd [4],cy/hu B7-H6 [5],cy/hu CD3 [6],Non-specific binding (RU) [7],Kd [8],Kd [9],binding result [10]
"B7H6#11/CD3#1 (bispecific antibody, scFab-Fc heterodimer, one B7H6 chain and one CD3 chain) chain 1: not shown chain 2: EAVVTQEPSLTVSPGGTVTLTCRSSTGAVTTSNYANWVQEKPGQLPRGLIGGTNKRAPWVPARFSGSLLGGKAALTLSGAQPEDEAEYFCALWYSNLWVFGGGTKLTVLGQPKAAPSVTLFPPSSEELQANKATLVCLISDFYPGAVKVAWKADGSPVNTGVETTTPSKQSNNKYAASSYLSLTPEQWKSHRSYSCQVTHEGSTVEKTVAPAECSGGGGSEGKSSGSGSESKSTEGKSSGSGSESKSTGGGGSEVQLVESGGGLVQPGGSLKLSCAASGFTFNTYAMNWVRQAPGKGLEWVARIRSKYNNYATYYADSVKDRFTISRDDSKNTAYLQMNNLKTEDTAVYYCVRHGNFGNSYVSWFAYWGQGTLVTVSAASTKGPSVFPLAPSSKSTSGGTAALGCLVKDYFPEPVTVSWNSGALTSGVHTFPAVLQSSGLYSLSSVVTVPSSSLGTQTYICNVNHKPSNTKVDKRVEPKSCDKTHTCPPCPAPEAAGGPSVFLFPPKPKDTLMISRTPEVTCVVVDVSHEDPEVKFNWYVDGVEVHNAKTKPREEQYNSTYRVVSVLTVLHQDWLNGKEYKCKVSNKALPAPIEKTISKAKGQPREPQVYTLPPSREEMTKNQVSLSCAVKGFYPSDIAVEWESNGQPENNYKTTPPVLDSDGSFFLVSKLTVDKSRWQQGNVFSCSVMHEALHNRFTQKSLSLSPG",~0.05 µg/mL,0.77 nM,–,–,–,–,–,–,–,–
"B7H6#14/CD3#5 (bispecific antibody, human IgG1, kappa, L234A L235A, scFab-Fc heterodimer) chain 1: DIQMTQSPSSLSASVGDRVTITCKASQNVGKYVAWYQQKPGKAPKSLIYSASNRYDGVPSRFSGSGSGTDFTLTISSLQPEDFATYFCQQYISYPLTFGAGTKLEIKRTVAAPSVFIFPPSDEQLKSGTASVVCLLNNFYPREAKVQWKVDNALQSGNSQESVTEQDSKDSTYSLSSTLTLSKADYEKHKVYACEVTHQGLSSPVTKSFNRGECGGGGSEGKSSGSGSESKSTEGKSSGSGSESKSTGGGGSQVQLVQSGAEVKKPGASVKVSCKASGYTFTNYWMNWMKQAPGQGLEWIGGIYLNGDSTDYNEKFKGKVTMTVDTSTSTVYMELSSLRSEDTAVYYCTRRGDYFGDFWGQGTLVTVSSASTKGPSVFPLAPSSKSTSGGTAALGCLVKDYFPEPVTVSWNSGALTSGVHTFPAVLQSSGLYSLSSVVTVPSSSLGTQTYICNVNHKPSNTKVDKRVEPKSCDKTHTCPPCPAPEAAGGPSVFLFPPKPKDTLMISRTPEVTCVVVDVSHEDPEVKFNWYVDGVEVHNAKTKPREEQYNSTYRVVSVLTVLHQDWLNGKEYKCKVSNKALPAPIEKTISKAKGQPREPQVYTLPPSREEMTKNQVSLWCLVKGFYPSDIAVEWESNGQPENNYKTTPPVLDSDGSFFLYSKLTVDKSRWQQGNVFSCSVMHEALHNHYTQKSLSLSPG chain 2: not shown",–,–,110 RU,1 nM,1.1,1.2,16.2 RU,4.3 nM,5.2 nM,no binding (tested: 1 µM)
"B7H6#23/CD3#2 (bispecific antibody, human IgG1, kappa, L234A L235A, scFab-Fc heterodimer) chain 1: DIQMTQSPSSLSASVGDRVTITCKASQNVGKYVAWYQQKPGKAPKSLIYSASNRYDAVPSRFSGSGSGTDFTLTISSLQPEDFATYFCQQYISYPLTFGAGTKLEIKRTVAAPSVFIFPPSDEQLKSGTASVVCLLNNFYPREAKVQWKVDNALQSGNSQESVTEQDSKDSTYSLSSTLTLSKADYEKHKVYACEVTHQGLSSPVTKSFNRGECGGGGSEGKSSGSGSESKSTEGKSSGSGSESKSTGGGGSQVQLVQSGAEVKKPGASVKVSCKASGYTFTSYWMNWMKQAPGQGLEWIGGIYLSGESTDYNEKFKGKVTMTVDTSTSTVYMELSSLRSEDTAVYYCTRRGDYFGDFWGQGTLVTVSSASTKGPSVFPLAPSSKSTSGGTAALGCLVKDYFPEPVTVSWNSGALTSGVHTFPAVLQSSGLYSLSSVVTVPSSSLGTQTYICNVNHKPSNTKVDKRVEPKSCDKTHTCPPCPAPEAAGGPSVFLFPPKPKDTLMISRTPEVTCVVVDVSHEDPEVKFNWYVDGVEVHNAKTKPREEQYNSTYRVVSVLTVLHQDWLNGKEYKCKVSNKALPAPIEKTISKAKGQPREPQVYTLPPSREEMTKNQVSLWCLVKGFYPSDIAVEWESNGQPENNYKTTPPVLDSDGSFFLYSKLTVDKSRWQQGNVFSCSVMHEALHNHYTQKSLSLSPG chain 2: not shown",–,–,47.8 RU,2 nM,1.1,1,37.8 RU,10.4 nM,10 nM,no binding (tested: 1 µM)
"B7H6#14/CD3#6 (bispecific antibody, human IgG1, kappa, L234A L235A, scFab-Fc heterodimer) chain 1: DIQMTQSPSSLSASVGDRVTITCKASQNVGKYVAWYQQKPGKAPKSLIYSASNRYDGVPSRFSGSGSGTDFTLTISSLQPEDFATYFCQQYISYPLTFGAGTKLEIKRTVAAPSVFIFPPSDEQLKSGTASVVCLLNNFYPREAKVQWKVDNALQSGNSQESVTEQDSKDSTYSLSSTLTLSKADYEKHKVYACEVTHQGLSSPVTKSFNRGECGGGGSEGKSSGSGSESKSTEGKSSGSGSESKSTGGGGSQVQLVQSGAEVKKPGASVKVSCKASGYTFTNYWMNWMKQAPGQGLEWIGGIYLNGDSTDYNEKFKGKVTMTVDTSTSTVYMELSSLRSEDTAVYYCTRRGDYFGDFWGQGTLVTVSSASTKGPSVFPLAPSSKSTSGGTAALGCLVKDYFPEPVTVSWNSGALTSGVHTFPAVLQSSGLYSLSSVVTVPSSSLGTQTYICNVNHKPSNTKVDKRVEPKSCDKTHTCPPCPAPEAAGGPSVFLFPPKPKDTLMISRTPEVTCVVVDVSHEDPEVKFNWYVDGVEVHNAKTKPREEQYNSTYRVVSVLTVLHQDWLNGKEYKCKVSNKALPAPIEKTISKAKGQPREPQVYTLPPSREEMTKNQVSLWCLVKGFYPSDIAVEWESNGQPENNYKTTPPVLDSDGSFFLYSKLTVDKSRWQQGNVFSCSVMHEALHNHYTQKSLSLSPG chain 2: not shown",–,–,34 RU,0.9 nM,2.1,1.4,15.7 RU,4.1 nM,5.7 nM,no binding (tested: 1 µM)
